Assay results published in US10188742B2, “Bi-specific antibodies and uses thereof” (ACADEMIA SINICA, priority 2014, dated 2019).

Legend:
[1] = biological target: BSA (Bos taurus, UniProt P02769); test: ELISA antigen binding of BsAbs, control protein
Procedure: (§1) The anti-PEG binding specificity of BsAbs was measured by adding graded concentrations of PEG2×TAG72, PEG2×DNS, hCC49 scFv, h6.3Fab×EGFR or h6.3Fab×CD19 in 50 μL 2% skim milk to the mucin, BSA-PEG5000, NH2-PEG3k-NH2 or BSA coated plates at RT for 1 h. The plates were washed with PBS-T (PBS containing 0.05% Tween-20) three times. Rabbit anti-6×His (2 μg/mL) supplemented with HRP-conjugated goat anti-rabbit (2 μg/mL) or HRP-conjugated goat Ig anti human IgG Fab (2 μg/mL) (Jackson ImmunoResearch Laboratories, West Grove, Pa.) in 50 μL dilution buffer were added for 1 h at room temperature. The plates were washed with PBS-T (PBS containing 0.05% Tween-20) three times and with PBS two times. Bound peroxidase activity was measured by adding 150 μL/well ABTS substrate solution (BioLegend, San Diego, Calif.) for 30 min at room temperature. The absorbance (405 nm) of wells was measured in a microplate reader (Molecular Device, Menlo Park, Calif.).
Binding of the BsAbs was detected by ELISA. Microtiter plates were first coated with antigens and then PEG2×TAG72, PEG2×DNS BsAbs or hCC49 (anti-TAG72) single chain antibody was added. After the plates were extensively washed to remove unbound antibodies, the remaining bound antibodies in each well were detected with HRP-conjugated secondary antibody. […] In sum, PEG2×TAG72 anti-PEG (hE11) BsAb of example 1.2 can bind both PEG and tumor antigens. […]

[2] = ELISA PEG binding of h6.3 BsAbs; settings: FIG. 14A
Procedure: as §1, with “The anti-PEG binding specificity of BsAbs was measured by adding graded concentrations of PEG2×TAG72, PEG2×DNS, hCC49 scFv, h6.3Fab×EGFR or h6.3Fab×CD19 in 50 μL 2% skim milk to the mucin, BSA-PEG5000, NH2-PEG3k-NH2 or BSA coated plates at RT for 1 h.” left out
The PEG-binding kinetics of h6-3Fab×EGFR and h6.3Fab×CD19 BsAbs were verified by Microscale Thermophoresis (MST) (FIGS. 14D and 14E).

[3] = test system: A431 cells (EGFR+); test: Flow cytometry: BsAb-directed PEG-liposome Texas Red / PEG-Qdot655 on cells; type: cell-based, human; settings: PEG-liposome Texas Red and PEG-Qdot655, 10 μg/mL BsAb
Procedure: PEG2×TAG72 or control PEG2×DNS BsAbs (10 μg/mL) were incubated with A-375 (TAG72−), MCF-7 (TAG72+), Jurkat (TAG72+) or OVCAR-3 (TAG72+) cells at 4° C. for 30 min followed by FITC-labeled goat anti-human immunoglobulin second antibody (2 μg/mL) (Jackson ImmunoResearch Laboratories, West Grove, Pa.) or FITC-labeled 4arm-PEG (2 μg/mL). Tumor-specific targeting of PEGylated compounds was also examined by staining A431 (EGFR^high), and Raji (CD19^high) cell lines with 10 μg/mL of h6.3Fab×EGFR or h6.3Fab×CD19 BsAbs in PBS containing 0.05% BSA (staining buffer) at 4° C. for 30 min. The cells were washed with cold PBS for 3 times. PEG-Qdot655 (8 nM) (Invitrogen, Grand Island, N.Y.) or PEG-liposomal Texas-Red (100 nm size, 50 μM, lipid conc.) (FormuMax Scientific, Palo Alto, Calif.) in staining buffer was added to cells for 30 min at 4° C. Raji cells (CD19+) or SKBR3 cells (HER2+) were incubated with 10 μg/ml h15-2b-knob/BU12-hole, h15-2b-knob/anti-Her2-hole, h6-3-knob/BU12-hole or h6-3-knob/anti-Her2-hole BsAbs, washed and incubated with 0.25 μg/ml FITC-labeled goat anti-human IgG or 10 nM methoxy-PEG Qdot 655 at 4° C. for 30 min. After washing with cold PBS, the surface fluorescence of 10^4 viable cells was measured by FACScaliber flow cytometer (Becton Dickinson, Mountain View, Calif., USA) then analyzed with Flowjo (Tree Star Inc., San Carlos, Calif., USA). […]

[4] = test system: A431 (EGFR+) tumor cells; test: Confocal live cell imaging of PEG-Qdot655 internalization; type: cell-based, human; settings: 10 μg/mL BsAb, 16 nM PEG-Qdot655
Procedure: The coverslips (30 mm) in POC chambers were coated with 10 μg/mL poly-L-lysine in PBS for 30 min at room temperature. The coverslips were washed twice with PBS and then 5×10^4 cells/chamber of A431 (EGFR+) tumor cells were seeded on the coverslips. A431 cells were incubated with 10 μg/mL of h6.3Fab×EGFR or h6.3Fab×CD19 BsAbs at 37° C. for 30 min containing 1 μg/mL of Hoechst 33342 and 100 nM of LysoTracker® Red DND-99 (Invitrogen Life Technologies Corporation, NY, USA). The cells were washed with culture medium for 2 times. Cell imaging was recorded with an Axiovert 200M Confocal Microscope (Carl Ziess Inc., Thornwood, N.Y.) after adding 16 nM of PEG-Qdot655 solution (Invitrogen Life Technologies Corporation, NY, USA).
To verify whether BsAb-targeted substance could be internalized by antigen-positive cancer cells, live cell imaging was performed by staining cells with lysosome tracker and BsAbs, followed by the addition and incubation of PEG-Qdot655.

[5] = test system: A431 (EGFR+) cells; test: Cytotoxicity assay of Doxisome with h6.3 BsAbs (3H-thymidine); type: cell-based, human; settings: compared with Doxisome alone
Procedure: A431 (EGFR^high) and Raji (CD19^high) cells (5000 cells/well) were seeded in 96-well plates overnight. Fifteen microgram per mL of h6.3Fab×EGFR or h6.3Fab×CD19 BsAbs were added to the cells for 30 min at 37° C. and followed by graded concentrations of free doxorubicin or PEGylated liposomal doxorubicin (Doxisome®, Taiwan Liposome Company Ltd., Taipei, Taiwan) was added to the cells in triplicate at 37° C. for 4 h. The cells were subsequently washed once and incubated for an additional 48 h in fresh culture medium and then pulsed for 16 h with ^3H-thymidine (1 μCi/well). Results are expressed as percent inhibition of ^3H-thymidine incorporation into cellular DNA in comparison to untreated cells.
Next, the ability of whether h6.3Fab×CD19 and h6.3Fab×EGFR BsAbs could increase the cytotoxicity of the drug-loaded nanoparticles (NPs) to antigen-positive cancer cells was investigated. Raji (CD19+) and A431 (EGFR+) cells were incubated with h6.3Fab×CD19 and h6.3Fab×EGFR, followed by the addition of graded concentrations of Doxisome (i.e., PEGylated liposomal doxorubicin).

[6] = test system: MDA-MB-468 cells (EGFR+); test: as above; type: cell-based, human; settings: compared with Doxisome alone
[7] = test system: Ramos (CD19+) and A431 (EGFR+) tumor; test: In vivo optical imaging of PEG-NIR797 probes; parameters: species or system BALB/c nude mice; settings: i.v. BsAb and PEG-NIR797; 45 min, 24 and 48 hours
Procedure: The mice were then imaged at 45 min, 24 and 48 hours after injection using an IVIS spectrum optical imaging system.

Chain of BSA (P02769 25-607): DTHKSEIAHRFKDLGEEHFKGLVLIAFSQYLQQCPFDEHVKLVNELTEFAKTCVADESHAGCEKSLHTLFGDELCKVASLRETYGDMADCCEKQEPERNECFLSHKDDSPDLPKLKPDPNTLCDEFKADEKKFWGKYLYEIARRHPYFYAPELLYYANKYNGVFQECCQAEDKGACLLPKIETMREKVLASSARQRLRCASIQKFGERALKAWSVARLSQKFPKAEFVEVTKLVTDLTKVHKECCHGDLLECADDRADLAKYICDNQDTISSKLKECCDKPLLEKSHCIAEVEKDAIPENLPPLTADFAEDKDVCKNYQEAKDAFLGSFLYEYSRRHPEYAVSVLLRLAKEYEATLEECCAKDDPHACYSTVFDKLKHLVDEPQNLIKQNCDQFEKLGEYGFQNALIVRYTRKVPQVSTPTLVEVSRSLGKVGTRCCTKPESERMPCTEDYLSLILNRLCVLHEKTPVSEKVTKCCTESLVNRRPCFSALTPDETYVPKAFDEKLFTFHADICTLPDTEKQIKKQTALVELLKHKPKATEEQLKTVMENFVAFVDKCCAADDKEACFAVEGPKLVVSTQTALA

B1: h6.3Fab×EGFR: monovalent humanized anti-PEG h6.3 Fab fused to 11F8 anti-EGFR dsFv; SEQ ID NO 9, 10, 4, 7, 6 (protein)
chain 1: DIVMTQSPDSLAVSLGERATINCKSSQSVLYSSNQMNYLAWYQQKPGQPPKLLIYWASTRESGVPDRFSGSGSGTDFTLTISSLQAEDVAVYYCLQYLSSWTFGGGTKLEIKTYSLSSTLTLSKADYEKHKLYACEVTHQGLSSPVTKSFNRGEC
chain 2: QVQLVQSGSELKKPGASVKVSCKASGYTFKNYGMNWVRQAPGQGLEWMGWINTYTGQPIYANDFKGRFVFSLDTSVSTAYLQISSLKAEDTAVYYCARDWGPYWGQGTLVTVSSASTKGPSVFPLAPSSKSTSGGTAALGCLVKDYFPEPVTVSWNSGALTSGVHTFPAVLQSSGLYSLSSVVTVPSSSLGTQTYICNVNHKPSNTKVDKRVEPKSCDK
chain 3: VDLVTVSSASTGGGSGQLGGGGS
chain 4: QVQLQESGPGLVKPSQTLSLTCTVSGGSISSGDYYWSWIRQPPGKCLEWIGYIYYSGSTDYNPSLKSRVTMSVDTSKNQFSLKVNSVTAADTAVYYCARVSIFGVGTFDYWGQGTLVTVSSGGGGSGGGGSGGGGSEIVMTQSPATLSLSPGERATLSCRASQSVSSYLAWYQQKPGQAPRLLIYDASNRATGIPARFSGSGSGTDFTLTISSLEPEDFAVYYCHQYGSTPLTFGCGTKAEIK
chain 5: TRHHHHHH
modifications: Humanized 6.3 VL-Ck; Humanized 6.3 VH-CH1; Peptide Linker; 11F8 anti-EGFR dsFv; 6xHis Tag
- binding to BSA [1]: not to the control BSA protein
- binding to NH2-PEG10,000-NH2 [2]: bound to the NH2-PEG10,000-NH2
- directing PEGylated substance to A431 cells [3]: capable of directing the PEGylated substance
- uptake of PEG-Qdot655 into A431 cells (endocytic vesicles) [4]: displayed red fluorescence within endocytic vesicles
- effect on cytotoxicity of Doxisome to A431 cells [5]: enhanced cytotoxicity of Doxisome
- effect on cytotoxicity of Doxisome to MDA-MB-468 cells [6]: enhanced cytotoxicity of Doxisome
- PEG-NIR797 signal in A431 tumors [7]: Enhanced signals of PEG-NIR797
